Measured values reported in patent US20110039779A1 (published 2011).
“And” between values parts separate entries of the source, which are not always exact repeats. Equal entries are not always repeated. Where no end group is shown, it is not given here. [ ]: non-standard residue; d: D form. pGlu = O=C1CC[C@@H](C(=O)O)N1

Columns and labels:
[1] = target: T1, Human IGF-1R (HIGF-1R), purified from BHK cells stably transfected with IGF-1R cDNA (human, UniProt P08069 31-1367); assay: competition with 125I-IGF-1 on purified HIGF-1R (PEG or SPA assay; the sentence does not say which)
T1 construct: mature; Detergent-solubilised whole receptor, not on cells; form 'mature' is my reading of 'purified from ... cells stably transfected with IGF-1R cDNA'; also called human insulin-like growth factor-1 receptor; purified HIGF-1R
T1 sequence (P08069 31-1367 limits assumed): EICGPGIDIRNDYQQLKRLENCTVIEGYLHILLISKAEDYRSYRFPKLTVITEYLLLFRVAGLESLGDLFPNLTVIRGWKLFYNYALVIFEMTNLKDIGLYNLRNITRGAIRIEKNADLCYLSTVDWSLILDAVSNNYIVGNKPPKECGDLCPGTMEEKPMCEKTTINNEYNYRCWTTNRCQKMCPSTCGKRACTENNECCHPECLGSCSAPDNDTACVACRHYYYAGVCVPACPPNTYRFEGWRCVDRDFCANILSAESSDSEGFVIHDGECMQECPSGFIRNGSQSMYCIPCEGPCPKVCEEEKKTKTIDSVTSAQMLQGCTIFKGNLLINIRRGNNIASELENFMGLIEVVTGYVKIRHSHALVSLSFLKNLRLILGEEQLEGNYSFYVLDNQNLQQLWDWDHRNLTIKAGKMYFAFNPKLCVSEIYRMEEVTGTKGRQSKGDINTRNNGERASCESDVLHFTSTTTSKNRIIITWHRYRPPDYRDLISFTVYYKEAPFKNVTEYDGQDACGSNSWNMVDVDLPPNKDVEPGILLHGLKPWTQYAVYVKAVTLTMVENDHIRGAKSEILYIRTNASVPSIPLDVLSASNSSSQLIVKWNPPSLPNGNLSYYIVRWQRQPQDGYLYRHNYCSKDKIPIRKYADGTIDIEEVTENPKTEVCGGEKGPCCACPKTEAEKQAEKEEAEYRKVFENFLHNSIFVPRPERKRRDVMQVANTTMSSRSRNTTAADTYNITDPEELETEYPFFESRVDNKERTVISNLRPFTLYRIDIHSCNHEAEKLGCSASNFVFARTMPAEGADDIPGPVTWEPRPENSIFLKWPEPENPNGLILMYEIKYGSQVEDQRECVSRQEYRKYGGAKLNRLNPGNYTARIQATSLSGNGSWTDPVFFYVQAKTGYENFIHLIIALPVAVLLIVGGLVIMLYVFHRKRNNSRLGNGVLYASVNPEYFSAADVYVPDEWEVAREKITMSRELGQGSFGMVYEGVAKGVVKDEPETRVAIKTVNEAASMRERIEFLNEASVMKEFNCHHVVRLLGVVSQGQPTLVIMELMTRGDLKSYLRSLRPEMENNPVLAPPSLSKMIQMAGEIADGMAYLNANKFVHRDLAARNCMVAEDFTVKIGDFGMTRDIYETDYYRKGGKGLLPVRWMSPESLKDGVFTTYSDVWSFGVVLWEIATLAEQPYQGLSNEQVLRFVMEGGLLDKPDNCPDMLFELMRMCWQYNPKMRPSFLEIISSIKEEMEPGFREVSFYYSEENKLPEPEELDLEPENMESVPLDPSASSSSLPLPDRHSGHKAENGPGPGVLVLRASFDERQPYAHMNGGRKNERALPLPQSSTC

[2] = target: T2, IGF-1R on MCF-7 cells (MCF-7S8, MCF7) (human, UniProt P08069 31-1367); assay: cell-based or functional assay
T2 sequence (P08069 31-1367): as the sequence (P08069 31-1367 limits assumed) above

[3] = target: T3, IGF-1R on SW480 cells (UniProt P08069 31-1367, limits assumed); assay: cell-based or functional assay
T3 sequence (P08069 31-1367 limits assumed): as above

[4] = target: Human IGF-1R (HIGF-1R), purified from BHK cells stably transfected with IGF-1R cDNA (human, UniProt P08069 31-1367); assay: cell-based or functional assay
Target sequence in this assay (P08069 31-1367 limits assumed): as above

[5] = target: T4, His-tagged soluble recombinant human IGF-IR (srhIGF-1R-his; R&D systems) (human, UniProt P08069 31-935); assay: AlphaScreen competition with biotinylated hIGF-1 on srhIGF-1R-his
T4 construct: extracellular domain; Bought protein; also called extra-cellular domain of IGF-1R; not shown: His tag
T4 sequence (P08069 31-935): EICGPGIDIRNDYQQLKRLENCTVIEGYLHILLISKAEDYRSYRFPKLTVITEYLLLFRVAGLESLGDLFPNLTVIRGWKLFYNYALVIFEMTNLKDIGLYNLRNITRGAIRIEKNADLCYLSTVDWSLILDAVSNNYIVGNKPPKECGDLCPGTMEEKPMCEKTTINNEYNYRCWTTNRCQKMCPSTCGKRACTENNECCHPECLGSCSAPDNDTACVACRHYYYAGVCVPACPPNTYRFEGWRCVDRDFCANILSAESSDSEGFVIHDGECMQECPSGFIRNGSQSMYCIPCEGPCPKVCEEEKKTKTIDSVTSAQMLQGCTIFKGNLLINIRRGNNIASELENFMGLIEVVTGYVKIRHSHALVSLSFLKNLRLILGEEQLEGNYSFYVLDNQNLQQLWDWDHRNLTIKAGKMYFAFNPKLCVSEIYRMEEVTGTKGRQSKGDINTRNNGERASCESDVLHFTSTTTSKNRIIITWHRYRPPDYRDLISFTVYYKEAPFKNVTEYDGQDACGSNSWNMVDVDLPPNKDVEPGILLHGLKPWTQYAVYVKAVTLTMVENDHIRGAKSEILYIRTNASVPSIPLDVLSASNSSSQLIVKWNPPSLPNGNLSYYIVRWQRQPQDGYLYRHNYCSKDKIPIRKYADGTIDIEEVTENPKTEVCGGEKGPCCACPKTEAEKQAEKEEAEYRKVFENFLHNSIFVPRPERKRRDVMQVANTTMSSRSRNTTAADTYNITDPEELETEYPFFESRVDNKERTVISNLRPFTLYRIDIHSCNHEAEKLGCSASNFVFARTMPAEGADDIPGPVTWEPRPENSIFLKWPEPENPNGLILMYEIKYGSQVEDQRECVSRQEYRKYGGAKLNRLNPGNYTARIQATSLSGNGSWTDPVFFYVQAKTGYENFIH
Procedure: Binding Assays. […] Detection of the receptor ligand interaction was measured in an amplified luminescent proximity homogeneous assay (ALPHAScreen; BioSignal-Packard, Montreal). The assay was performed in 384-well Nunc™ white polystyrene microplates (Nalge Nunc International, Naperville, Ill.) with a final volume of 40 μL. […] Each concentration of competitor was assayed in duplicate. […] The second step of the assay was to add acceptor beads and the incubation continued for 0.5 hr. The final step was to add donor beads and the incubation continued for an additional 1 hr. […] Primary data were background corrected, normalized to buffer controls and then expressed as % Specific Binding. The data were fit to a four-parameter non-linear regression analysis (y=min+(max-min)/(1+10̂((log IC₅₀-x)*Hillslope))), which was used to determine IC₅₀ values. The Z′-factor for this assay is greater than 0.7 (Z′=1-(3σ++3σ−)/|μ+−μ−|) and the signal-to-background (SB) ratio was between 40 and 70.

[6] = target: IGF-1R on L6 cells; assay: cell-based or functional assay
[7] = target: IGF-1R on SW480, MCF-7 and MiaPaCa cells (human, UniProt P08069 31-1367); assay: cell-based or functional assay
Chain of IGF-1R on SW480, MCF-7 and MiaPaCa cells (P08069 31-1367): as the sequence (P08069 31-1367 limits assumed) above

[8] = target: T2, IGF-1R on MCF-7 cells (MCF-7S8, MCF7); assay: cell-based or functional assay; remark: listed apart in the source
[9] = target: T3, IGF-1R on SW480 cells; assay: cell-based or functional assay; remark: listed apart in the source
[10] = target: T1, Human IGF-1R (HIGF-1R), purified from …; assay: cell-based or functional assay; remark: listed apart in the source
[11] = target: IGF-1R on L6 cells; assay: cell-based or functional assay; remark: listed apart in the source
Target sequence in this assay (P24062 31-737, chain 1 of 2): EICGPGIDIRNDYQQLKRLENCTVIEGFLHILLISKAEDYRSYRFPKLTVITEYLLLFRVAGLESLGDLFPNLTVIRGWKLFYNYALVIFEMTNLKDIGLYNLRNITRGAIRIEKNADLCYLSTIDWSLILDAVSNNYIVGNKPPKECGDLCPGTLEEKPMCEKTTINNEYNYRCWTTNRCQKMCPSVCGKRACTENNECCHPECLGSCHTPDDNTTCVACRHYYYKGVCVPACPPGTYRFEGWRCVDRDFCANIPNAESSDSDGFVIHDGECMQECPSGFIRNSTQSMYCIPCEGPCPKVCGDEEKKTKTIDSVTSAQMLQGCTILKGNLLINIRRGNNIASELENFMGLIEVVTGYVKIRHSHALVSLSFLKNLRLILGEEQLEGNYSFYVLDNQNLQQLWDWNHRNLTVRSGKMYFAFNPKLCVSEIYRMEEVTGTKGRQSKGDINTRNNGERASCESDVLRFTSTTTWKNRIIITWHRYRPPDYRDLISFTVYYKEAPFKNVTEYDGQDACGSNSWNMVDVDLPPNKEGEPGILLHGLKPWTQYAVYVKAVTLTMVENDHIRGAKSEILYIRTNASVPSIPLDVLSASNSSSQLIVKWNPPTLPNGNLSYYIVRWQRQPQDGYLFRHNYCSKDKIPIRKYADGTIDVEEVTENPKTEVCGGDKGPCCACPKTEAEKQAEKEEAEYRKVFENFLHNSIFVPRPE
Target sequence in this assay (P24062 742-1370, chain 2 of 2): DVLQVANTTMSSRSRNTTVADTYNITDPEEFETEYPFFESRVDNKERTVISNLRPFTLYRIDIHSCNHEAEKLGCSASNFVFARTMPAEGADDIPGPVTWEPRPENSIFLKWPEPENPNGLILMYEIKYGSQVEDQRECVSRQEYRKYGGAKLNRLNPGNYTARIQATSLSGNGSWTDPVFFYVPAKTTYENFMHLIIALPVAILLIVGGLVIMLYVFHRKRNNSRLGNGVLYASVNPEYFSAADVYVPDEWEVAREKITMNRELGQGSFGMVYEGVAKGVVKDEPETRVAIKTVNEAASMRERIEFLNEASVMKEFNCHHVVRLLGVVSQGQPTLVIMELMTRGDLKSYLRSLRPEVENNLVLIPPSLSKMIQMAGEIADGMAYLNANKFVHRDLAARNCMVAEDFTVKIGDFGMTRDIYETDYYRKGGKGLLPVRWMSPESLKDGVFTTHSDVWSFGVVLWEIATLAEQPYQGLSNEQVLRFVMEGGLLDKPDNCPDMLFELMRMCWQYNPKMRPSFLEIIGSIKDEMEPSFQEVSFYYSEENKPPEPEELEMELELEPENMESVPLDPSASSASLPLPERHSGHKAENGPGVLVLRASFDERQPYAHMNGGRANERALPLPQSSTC

ESFYSCLASLVAGTPWPKGGSWERCREE [F230]
Kd [1]: 20 to 50 nM

SFYSCLESLVNGPAEKSRGQWDGCRK [F250]
IC50 in MCF-7S8, in presence of IGF-1 [2]: 2000 nM | IC50 in SW480 (M) in presence of IGF-1 [3]: 2e-06 M and 1e-06 M

SFYSCLESLVQGPAEKSRGQWEGCRK [F293, listing 1 of 2 here]
IC50 in MCF-7S8, in presence of IGF-1 [2]: 10000 nM | IC50 in MCF-7S8, peptide alone [2]: > 10000 nM | IC50 in SW480 (M), peptide alone [3]: 1e-07 M | IC50 in kinase assay (M), IGF-1R kinase activation by 10 nM IGF-1 [4]: 1e-07 M | IC50 [5]: 9 nM | IC50, down regulation of 3 nM IGF-1 stimulation to basal level, IGF-IR, L6 cells [6]: 500 nM | IC50, down regulation of 3 nM IGF-1 stimulation to basal level, IRS-1, L6 cells [6]: > 1000 nM | IC50, down regulation of 3 nM IGF-1 stimulation to basal level, MAPK42, L6 cells [6]: 1000 nM | IC50, down regulation of 3 nM IGF-1 stimulation to basal level, MAPK44, L6 cells [6]: 500 nM | IC50, down regulation of 3 nM IGF-1 stimulation to basal level, PKB/Akt, L6 cells [6]: > 1000 nM

EVDRDCQARPCGDAANFYDWFGQQGTE [F269]
IC50 in SW480 (M) in presence of IGF-1 [3]: 5e-07 M | IC50 in SW480 (M), peptide alone [3]: > 1e-05 M | IC50 in kinase assay (M), IGF-1R kinase activation by 10 nM IGF-1 [4]: 8e-07 M

QFYGCLLDLSLGVPSFGWKKKCITA [F392]
IC50, IGF-1 dependent growth of SW480 [7]: 800 nM

SFYDCLLDLSIGGPSSDWRRRCITA [F441]
MCF7 IC50 [8]: 240 nM and 180 nM

[pGlu]FYGCLLDLSLGVPSFGWRRRCITA (cysteine pairing not given here) [F138P]
IC50, IGF-1 dependent growth in SW480 [7]: 500 nM

QFYGCLLDLSLGVPSFGWRRRCITA [F138]
Kd [1]: 6 to 10 nM | IC50, IGF-1 dependent growth in MCF-7 [7]: 500 nM | IC50, IGF-1 dependent growth in SW480 [7]: 150 nM

SFYSCLESLVAGPAEKSRGQWEGCRK [F259, listing 1 of 2 here]
IC50 in MCF-7S8, in presence of IGF-1 [2]: 5000 nM and 2000 nM | IC50 in SW480 (M) in presence of IGF-1 [3]: 2e-06 M | IC50, IGF-1 (10 nM)-induced proliferation of SW480 cells, exp. 13262-014 [9]: > 10000 nM

ESYGDCRDRPCGDAPNFYDWFVQQASE [F270]
IC50, IGF-1 dependent growth in SW480 [7]: 2000 nM

EDWLRCLGVILSGGLTELANTGCVQGE [F167]
IC50 in kinase assay (M), IGF-1R kinase activation by 10 nM IGF-1 [4]: 1e-06 M

EGRVDDAFYEWFERQLGE [F213]
IC50 in MCF-7S8, in presence of IGF-1 [2]: 2000 nM | IC50 in SW480 (M) in presence of IGF-1 [3]: 2e-06 M

DFYGCLLDLSLGVPSLGWRRRCIT (also called Peptide 428) [F428]
IC50, IGF-1 dependent growth of SW480 [7]: 500 nM and 1000 nM

TFYSCLASLLTGTPQPNRGPWERCR [RP6]
IC50 [5]: 2700 nM

SFYSCLESLVAGPAEKSRGQWEGCRK [F259, listing 2 of 2 here]
IC50, IGF-1R kinase activation by IGF-1 [10]: 200 nM and 300 nM

SFYSCLESLVQGPAEKSRGQWEGCRK [F293, listing 2 of 2 here]
Kd [1]: 90 nM | IC50, IGF-1 dependent growth in MCF-7 cells [7]: 10000 nM | IC50, growth of L6 cells stimulated by IGF-1 at 3 nM [11]: > 10000 nM | IC50, phosphorylation of IGF-1R and MAPK42/44 in response to IGF-1 treatment [11]: 500 nM

EFGRGYGGDGGGYWSGYEWLAE [F207]
IC50 in MCF-7S8, in presence of IGF-1 [2]: 2000 nM | IC50 in SW480 (M) in presence of IGF-1 [3]: 2e-06 M | IC50 in kinase assay (M), IGF-1R kinase activation by 10 nM IGF-1 [4]: 2e-07 M

FVQDDCRGRPCGDADSFYEWFDQQAGYGSSSRRAPQT [F364]
Kd [1]: 50 nM

SFYSCLESLVTGPAEKSRGQWEGCRK [F292]
IC50 in MCF-7S8, in presence of IGF-1 [2]: 1000 nM | IC50 in SW480 (M) in presence of IGF-1 [3]: 1e-07 M | IC50 in SW480 (M), peptide alone [3]: 1e-06 M

ESFYSCLESLVNGPAEKSRGQWDGCRE [F215]
Kd [1]: 80 to 300 nM

RQWDCRGRPCGDAESFYEWFDQQRS [F264]
IC50, IGF-1 dependent growth in SW480 cells [7]: > 1000 nM

EFSGFCMGLERLSQVSLGYCGAGQGGE [F169]
IC50 in MCF-7S8, in presence of IGF-1 [2]: 2000 nM | IC50 in SW480 (M) in presence of IGF-1 [3]: 2e-06 M
